# Data: paper PMC3142617 (Cell host & microbe, 2011)
# B1: L6TIR (L6 TIR domain, residues 29-229) (domain or fragment, flax (Linum usitatissimum))
# chain: SNAKDSIVNDDDDSTSEVDAISDSTNPSGSFPSVEYEVFLSFRGPDTREQFTDFLYQSLRRYKIHTFRDDDELLKGKEIGPNLLRAIDQSKIYVPIISSGYADSKWCLMELAEIVRRQEEDPRRIILPIFYMVDPSDVRHQTGCYKKAFRKHANKFDGQTIQNWKDALKKVGDLKGWHIGKNDKQGAIADKVSADIWSHISKEN
# What was measured:
# [1] = biological target: the molecule itself; experiment: SEC-MALS
# [2] = biological target: the molecule itself; experiment: AUC
protein,measurement,setting,value
B1,stoichiometry N,[1],~2
same,Kd,[2],20.3 µM
same,stoichiometry N,[2],2
